Consider three molecules from patent publication US20090304651A1 (published 2009).

For assay [1], the target named is T1, recombinant human IGF-II (Insulin-like Growth Factor II) (human, UniProt P01344 25-91, biotinylated (Biotinyl-IGF-II, GroPep) where immobilised in SPR, site not stated; not biotinylated in ITC and as SPR analyte).
T1 construct: also called IGF2; IGF-2
As to the kind of experiment: SPR, IGF-II immobilised, kinetic fit. The method, then:
(§1) Kinetic analysis by Surface Plasmon Resonance (SPR) was conducted on a BIAcore 3000 biosensor (BIAcore, Uppsala, Sweden) at 25° C. in HBS-EP (10 mM HEPES, pH 7.4, 150 mM NaCl, 3 mM EDTA, 0.005% surfactant P20) at a flow rate of 40 μl/min. […] Kinetic experiments consisted of a two minute injection of analyte followed by a 100 s dissociation phase in running buffer, after which the binding surface was regenerated with a 2 minute injection of 2 M MgCl₂. A blank flow cell was used for in-line reference subtraction of changes due to differences in refractive index of running buffer versus sample and a buffer-only injection was used to subtract instrument noise and drift. Injections were performed in duplicate for each concentration and in a randomised order. Kinetic parameters were determined by global fitting of sensorgrams to a two-state (conformational change) binding model using BIAevaluation software version 4.0.1. In all cases the minor component made an insignificant contribution to the overall affinity and as such only the kinetic parameters of the major binding component were used. For each interaction the dissociation affinity constant (KD) was also calculated by fitting of the response of each concentration at equilibrium to a steady-state affinity model using BIAevaluation. In order to investigate the influence of ionic strength, kinetic experiments were conducted in HBS-EP running buffers containing the desired NaCl concentration. In each case, analyte samples were made up in the appropriate running buffer prior to injection.
For orientation: In SPR one partner is held on a chip, and binding of the other changes the refractive index at the surface.

The target of assay [2] is T1, recombinant human IGF-II (Insulin-like …). In words: SPR, IGF-II immobilised, major kinetic parameter ka1. The method, then: (§2) Kinetic experiments consisted of a two minute injection of analyte followed by a 100 s dissociation phase in running buffer, after which the binding surface was regenerated with a 2 minute injection of 2 M MgCl₂. A blank flow cell was used for in-line reference subtraction of changes due to differences in refractive index of running buffer versus sample and a buffer-only injection was used to subtract instrument noise and drift. Injections were performed in duplicate for each concentration and in a randomised order. Kinetic parameters were determined by global fitting of sensorgrams to a two-state (conformational change) binding model using BIAevaluation software version 4.0.1. In all cases the minor component made an insignificant contribution to the overall affinity and as such only the kinetic parameters of the major binding component were used. For each interaction the dissociation affinity constant (KD) was also calculated by fitting of the response of each concentration at equilibrium to a steady-state affinity model using BIAevaluation. […]
(§3) The affinity of versions of Fc-tagged domain 11 fusion proteins, and domain 11 constructs, for IGF-II were compared using surface plasmon resonance (BIAcore 3000). […] The Fc-tagged domain 11 kinetic data performed in triplicate generated sensorgrams that were analyzed using a bivalent analyte model.

The target is the same in assay [3]. In words: SPR, IGF-II immobilised, steady state. The method, then:
as §1
(§4) Following purification, the binding of each mutant construct to IGF2 was assessed by SPR and compared to the wild type domain 11. Sensorgrams were generated using biotinylated IGF2 immobilised to the cell surface and mutant domain 11 proteins as the free analyte (FIG. 4).

The target is the same in assay [4]. As to the kind of experiment: SPR, IGF-II immobilised, major kinetic parameters. The method, then: as §2, §3
For assay [5] the target is unchanged. In words: SPR, IGF-II immobilised, kinetic fit. The method, then: as §1, §4
This is another data set of the same source.

Assay [6] shares this target. In words: SPR, steady-state KD relative to wild type. The method, then: […]. Values are the mean±S.E.M. of three separate experiments.
as §1
Following purification, the binding of each mutant construct to IGF2 was assessed by SPR and compared to the wild type domain 11.

Assay [7] shares this target. In words: SPR, IGF-II immobilised, major kinetic parameter kd1. The method, then:
as §2, §3

T1 sequence (P01344 25-91 limits assumed): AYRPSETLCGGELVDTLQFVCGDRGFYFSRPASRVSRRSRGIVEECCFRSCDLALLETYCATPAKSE

B1: wild type IGF2R domain 11 (amino acids 1511-1650) with C-terminal His6 tag, from Pichia pastoris (receptor)
chain: NEHDDCQVTNPSTGHLFDLSSLSGRAGFTAAYSEKGLVYMSICGENENCPPGVGACFGQTRISVGKANKRLRYVDQVLQLVYKDGSPCPSKSGLSYKSVISFVCRPEAGPTNRPMLISLDKQTCTLFFSWHTPLACEQATHHHHHH
notes: also called WT; wild type domain 11
Consider B1, for which the Kd in assay [1] amounted to 102 nM; in assay [3], 103 nM; in assay [4], 119 nM; in assay [5], 102 nM. Moreover, the off-rate constant (koff) in assay [1] was 0.053 s⁻¹; in assay [5] it was 0.053 s⁻¹; in assay [7], 0.0787 s⁻¹. For the same molecule, the kon in assay [1] was 525000 M⁻¹ s⁻¹; in assay [2] it was 662000 M⁻¹ s⁻¹; in assay [5] it was 525000 M⁻¹ s⁻¹. In assay [6], the “Relative Affinity” value was 1 fold (wild type = 1.00).

B2: IGF2R domain 11 E1544K (amino acids 1511-1650, C-terminal His6 tag, from Pichia pastoris) (receptor)
chain: NEHDDCQVTNPSTGHLFDLSSLSGRAGFTAAYSKKGLVYMSICGENENCPPGVGACFGQTRISVGKANKRLRYVDQVLQLVYKDGSPCPSKSGLSYKSVISFVCRPEAGPTNRPMLISLDKQTCTLFFSWHTPLACEQATHHHHHH
notes: also called enhanced mutant
Regarding B2, the kon in assay [2] worked out at 2.02e+06 M⁻¹ s⁻¹. Moreover, the Kd in assay [4] came to 20.5 nM. The koff in assay [7] was 0.0406 s⁻¹.

B3: IGF2R domain 11 E1544A (amino acids 1511-1650, C-terminal His6 tag, from Pichia pastoris) (receptor)
chain: NEHDDCQVTNPSTGHLFDLSSLSGRAGFTAAYSAKGLVYMSICGENENCPPGVGACFGQTRISVGKANKRLRYVDQVLQLVYKDGSPCPSKSGLSYKSVISFVCRPEAGPTNRPMLISLDKQTCTLFFSWHTPLACEQATHHHHHH
As for B3, the Kd in assay [3] amounted to 37 nM. For the same molecule, in assay [5], the Kd turned out to be 36 nM, the koff was 0.033 s⁻¹ and the kon worked out at 934000 M⁻¹ s⁻¹. Also, the “Relative Affinity” value in assay [6] is 2.79 fold (wild type = 1.00).

The term Kd denotes the concentration at which binding is half-saturated. The term koff denotes the first-order rate constant of dissociation. The kon is a measure of how fast the partners come together.
